Test results taken from article PMC4103548, “Expression, and Molecular and Enzymatic Characterization of Cu-Containing Nitrite Reductase from a Marine Ammonia-Oxidizing Gammaproteobacterium, Nitrosococcus oceani” (Microbes and Environments, 2012).

Substrate: O=NO
Test: nitrite consumption, diazo-coupling colorimetric assay; Hanes-Woolf plot
Assay type: biochemical, Nitrosococcus oceani
Conditions: reduced methylviologen (dithionite) as electron donor, pH 5.5 (optimal), 30 mM CPT buffer, 37°C, under mineral oil, kcat per subunit

B1: Cu-containing nitrite reductase (recombinant NirK) from Nitrosococcus oceani NS58 (Nitrosococcus oceani ATCC 19707) (protein)
chain: ADGEASSYIANIGTHANLKDLERVRQELVAPPHLPDHQQAYSGKPRIVEIEMVIEEKEVEIEPNVFVQAMTFNGTNPGPIIVVHEGDYVELTLKNLDTNMLLHNIDFHPATGALGGGALTKVAPGQQVTLRFKADKAGTYVYHCAPGGLMTPYHVVSGMYGAIMIFPKKGLRDQNGKKVTYDKAYYVGEQGWYIPKDKNGKYKRYANAIEPYGDTLEVMRGLVPTHVTYNGSKGALTGDNAMKAKVGDSVLFIHSQANEDSRIHLIGGHGDLVWPGGSFKNTPMVDKETWHVNGGESVAALYTFKQPGLYAYLNHNLIQAFMLGGAAHVKVDGEWNNDLMEQVVKPSPINAD
Km: 52 µM
kcat: 1600 s⁻¹
